Here are results for 17 molecules from patent publication US20110059889A1 (SYNTONIX PHARMACEUTICALS, published 2011).

Like-named read-outs stand apart in the source and are kept apart here. Numbered stars: 1 amine (or outer) side, 2 acyl side, 3 side chain; on linkers, the order of the positions; unused ones are H or OH. Bridge positions count the residues as written; N and C are the ends. Square brackets hold non-standard residues; d marks the D form. Ends that are not written are not given here. X2 = (3R)‑3‑amino‑1‑carboxymethyl‑valerolactam, O=C1[C@H](N[*:1])CCCN1CC(=O)[*:2]; X1 = 3‑amino‑2‑oxo‑1‑piperidine‑acetic acid, O=C1C(N[*:1])CCCN1CC(=O)[*:2]; NMeL = CN[C@@H](CC(C)C)C(=O)O; Pen = CC(C)(S)[C@H](N)C(=O)O; NMeA = CN[C@@H](C)C(=O)O; Sar = CNCC(=O)O

For assay [1], the target named is T1, soluble human FcRn (shFcRn) (human, UniProt P55899 24-297; P61769 21-119).
T1 construct: Biotinylated for the ELISA, amine-coupled to a CM5 chip for SPR; also called biotinylated shFcRn
T1 sequence (P55899 24-297 limits assumed, chain 1 of 2): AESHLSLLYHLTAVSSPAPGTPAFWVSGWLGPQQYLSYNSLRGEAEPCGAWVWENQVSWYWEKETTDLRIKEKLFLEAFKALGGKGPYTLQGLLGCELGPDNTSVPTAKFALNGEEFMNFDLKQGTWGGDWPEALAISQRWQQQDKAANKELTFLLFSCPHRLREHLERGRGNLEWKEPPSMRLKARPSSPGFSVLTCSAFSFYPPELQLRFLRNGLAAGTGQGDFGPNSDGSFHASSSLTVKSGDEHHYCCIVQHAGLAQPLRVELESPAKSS
T1 sequence (P61769 21-119 limits assumed, chain 2 of 2): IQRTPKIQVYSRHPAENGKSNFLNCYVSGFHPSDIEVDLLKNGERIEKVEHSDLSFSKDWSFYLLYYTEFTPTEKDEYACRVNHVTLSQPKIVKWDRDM
Kind of assay: SPR pH 6.
Protocol: (§1) The following steps were performed to cross-link soluble human or cynomolgus FcRn to the dextran surface of a CM5 sensor chip (Biacore AB, Uppsala, Sweden) by an amine coupling reaction involving 1-ethyl-(3-dimethylaminopropyl)-carbodiimide hydrochloride (EDC) (Biacore AB, Uppsala, Sweden) and N-hydroxysuccinimide (NHS) (Biacore AB, Uppsala, Sweden) as recommended by Biacore (BIAapplications Handbook, version AB, section 4.2, Biacore AB, Uppsala, Sweden). […] Residual sites on the FcRn flow cell were blocked with 1 M ethanolamine hydrochloride pH 8.5 (Biacore AB, Uppsala, Sweden). A control flow cell was blocked with ethanolamine for reference subtraction. For analysis of the monomeric peptides, FcRn was coated to a final density of 4000-5000 response units (RU). For analysis of the peptide dimers, FcRn was coated to a density of 2000-2500 RU. All SPR measurements were performed using a BIACORE 3000 Instrument (Biacore AB Uppsala, Sweden). For measurements done at either pH 6 or pH 7.4, experiments were performed in 50 mM phosphate, 100 mM sodium chloride, 0.01% surfactant P20 (Biacore AB, Uppsala, Sweden).
(§2) Ten, 2-fold dilutions of the peptide were injected over the FcRn-CM5 chip at a rate of 20 μl/min for 2 min. The peptide was dissociated from the chip for 2.5 minutes with buffer. Any remaining peptide was removed from the chip with a 30 second injection of HBS-P buffer (Biacore AB, Uppsala, Sweden) at a rate of 30 μl/min. Sensorgrams were generated and analyzed using BiaEval software version 3.1 (Biacore AB, Uppsala, Sweden). The equilibrium RU observed for each injection was plotted against concentration. The equilibrium KD values were derived by analysis of the plots using the steady state affinity model included in the BiaEval software.

Assay [2] addresses T1, soluble human FcRn (shFcRn). Briefly: IgG competition ELISA. (In general: An ELISA detects its analyte on a solid surface through an enzyme-linked reagent.)
Protocol: (§3) The wells were coated with 100 μl/well of 1 μg/ml biotinylated-shFcRn in Buffer A. The plate was sealed and incubated at 37° C. for 2 hours. Afterwards, the plate was washed with 200 μl/well of Buffer B (Buffer B: 100 mM MES pH 6, 150 mM NaCl, 0.5% BSA IgG-free (Jackson ImmunoResearch, West Grove, Pa.), 0.05% Tween-20). […] To allow for mixing, the plate was rocked for 2 minutes, sealed and incubated at 37° C. for 2 hours. […] The plate was covered, incubated for 30 minutes at room temperature and washed 4 times with 200 μl/well of ice-cold buffer B. SureBlue TMB substrate solution (100 μl/well, KPL, Gaithersburg, Md.) was added and the plate was allowed to incubate at room temperature until color developed, which took 5 to 10 minutes. Once color developed, 100 μl/well of TMB stop solution (KPL, Gaithersburg, Md.) was added and the absorbance was measured at 450 nm. The data was plotted as absorbance vs. peptide concentration to derive the inhibitory concentration 50% (IC₅₀) values.
For assay [3] the target is unchanged. Kind of assay: IgG competition ELISA. The source holds these as a separate data set.
Protocol: as §3
The target is the same in assay [4]. Briefly: SPR pH 6. This is another data set of the same source.
Protocol: as §1, §2
For assay [5] the target is unchanged. Kind of assay: SPR pH 6. This is another data set of the same source.
Protocol: as §1, §2
For assay [6] the target is unchanged. Kind of assay: SPR pH 6. This is another data set of the same source.
Protocol: as §1, §2
Assay [7] has the same target. Kind of assay: IgG competition ELISA. The source holds these as a separate data set.
Protocol: as §3
For assay [8] the target is unchanged. Briefly: IgG competition ELISA. The source holds these as a separate data set.
Protocol: as §3
Assay [9] shares this target. Briefly: IgG competition ELISA. This is another data set of the same source.

Regarding RF[Pen]TGHF[X1]LYPC-NH2 (disulfide 3-12) [Peptide No. 178], in assay [1], the Kd (as a rule, the constant that tells how readily two partners part at equilibrium) was 160 nM. Further, in assay [2], the IC50 (in general, the concentration needed to halve the response being measured) stood at 660 nM.

B1: Peptide No. 279 (peptide)
peptide: RF[Pen]TGHFG[Sar][NMeL]YPC-NH2
modifications: disulfide 3-13; also: dimer: N-termini joined by Bis-dPEG6 diacid linker
notes: N-terminally linked dimer; drawing CHEM-US-00123
In assay [3], B1 displayed an IC50 of 7 nM.

B2: Peptide No. 111 (peptide)
peptide: QRF[Pen]TGHF[Sar]GLYPCNGP-NH2
modifications: disulfide 4-14; N-terminus assumed
SMILES: CC(C)C[C@@H]1NC(=O)CNC(=O)CN(C)C(=O)[C@H](Cc2ccccc2)NC(=O)[C@H](Cc2c[nH]cn2)NC(=O)CNC(=O)[C@H]([C@@H](C)O)NC(=O)[C@@H](NC(=O)[C@H](Cc2ccccc2)NC(=O)[C@H](CCCNC(=N)N)NC(=O)[C@@H](N)CCC(N)=O)C(C)(C)SSC[C@@H](C(=O)N[C@@H](CC(N)=O)C(=O)NCC(=O)N2CCC[C@H]2C(N)=O)NC(=O)[C@@H]2CCCN2C(=O)[C@H](Cc2ccc(O)cc2)NC1=O
B2: the Kd in [4] is 2000 nM.

RF[Pen]TGHF[X1]LYPC-NH2 (disulfide 3-12) [Peptide No. 179] yielded a Kd in assay [1] of 670 nM. For the same molecule, in [2], the IC50 amounted to 7200 nM.

B3: Peptide No. 205 (peptide)
peptide: RFCTGHFXLYPC
modifications: not fully specified; Pen 3; X 8 = 3(S)-2-amino-2-oxo-1-azepine acetic acid (so in the source) in place of Gly-Gly; disulfide 3-12; C-terminal amide
In assay [1], B3 gave a Kd of 103 nM. Moreover, the 50% inhibitory concentration (IC50) in [2] was 640 nM.

B4: Peptide No. 201 (peptide)
peptide: QRF[Pen]TGHFGGLYPCNGP-NH2
modifications: disulfide 4-14; also: N-terminally linked homodimer via ethylene glycol-bis(succinic acid) linker
notes: N-terminally linked dimer
Molecule B4 returned an IC50 in assay [3] of 26 nM.

B5: Peptide No. 228 (peptide)
peptide: RF[Pen][NMeA]GHF[X2][NMeL]YPC-NH2
modifications: disulfide 3-12; N-terminus assumed
SMILES: CC(C)C[C@H]1C(=O)N[C@@H](Cc2ccc(O)cc2)C(=O)N2CCC[C@H]2C(=O)N[C@H](C(N)=O)CSSC(C)(C)[C@H](NC(=O)[C@H](Cc2ccccc2)NC(=O)[C@@H](N)CCCNC(=N)N)C(=O)N(C)[C@@H](C)C(=O)NCC(=O)N[C@@H](Cc2c[nH]cn2)C(=O)N[C@@H](Cc2ccccc2)C(=O)N[C@@H]2CCCN(CC(=O)N1C)C2=O
The molecule B5 yielded an equilibrium dissociation constant (Kd) in [1] of 145 nM. For the same molecule, the IC50 in assay [2] was 1100 nM.

B6: Peptide No. 214 (peptide)
peptide: RFCTGHFXLYPC
modifications: not fully specified; Pen 3; X 8 = 3(S)-3-amino-2-oxo-1-pyrrolidine acetic acid in place of Gly-Gly; disulfide 3-12; C-terminal amide
On to B6, for which the Kd in assay [1] stood at 280 nM. This molecule also registered an IC50 in assay [2] of 2300 nM.

B7: Peptide No. 235 (peptide)
peptide: RF[Pen]TGHFG[Sar][NMeL]YPC-NH2
modifications: disulfide 3-13; N-terminus assumed
SMILES: CC(C)C[C@H]1C(=O)N[C@@H](Cc2ccc(O)cc2)C(=O)N2CCC[C@H]2C(=O)N[C@H](C(N)=O)CSSC(C)(C)[C@H](NC(=O)[C@H](Cc2ccccc2)NC(=O)[C@@H](N)CCCNC(=N)N)C(=O)N[C@@H]([C@@H](C)O)C(=O)NCC(=O)N[C@@H](Cc2c[nH]cn2)C(=O)N[C@@H](Cc2ccccc2)C(=O)NCC(=O)N(C)CC(=O)N1C
As for B7, the Kd in assay [4] and in [5] was 31 nM in each case.

B8: Peptide No. 237 (peptide)
peptide: RF[Pen]TGHFGGWYPC-NH2
modifications: disulfide 3-13; N-terminus assumed
SMILES: C[C@@H](O)[C@@H]1NC(=O)[C@@H](NC(=O)[C@H](Cc2ccccc2)NC(=O)[C@@H](N)CCCNC(=N)N)C(C)(C)SSC[C@@H](C(N)=O)NC(=O)[C@@H]2CCCN2C(=O)[C@H](Cc2ccc(O)cc2)NC(=O)[C@H](Cc2c[nH]c3ccccc23)NC(=O)CNC(=O)CNC(=O)[C@H](Cc2ccccc2)NC(=O)[C@H](Cc2c[nH]cn2)NC(=O)CNC1=O
The molecule B8 displayed a Kd in assay [6] of 140 nM. Besides, in assay [7], the IC50 is 2800 nM.

B9: Peptide No. 101 (peptide)
peptide: QRF[Pen]TGHFGGIYPCNGP-NH2
modifications: disulfide 4-14; N-terminus assumed
SMILES: CC[C@H](C)[C@@H]1NC(=O)CNC(=O)CNC(=O)[C@H](Cc2ccccc2)NC(=O)[C@H](Cc2c[nH]cn2)NC(=O)CNC(=O)[C@H]([C@@H](C)O)NC(=O)[C@@H](NC(=O)[C@H](Cc2ccccc2)NC(=O)[C@H](CCCNC(=N)N)NC(=O)[C@@H](N)CCC(N)=O)C(C)(C)SSC[C@@H](C(=O)N[C@@H](CC(N)=O)C(=O)NCC(=O)N2CCC[C@H]2C(N)=O)NC(=O)[C@@H]2CCCN2C(=O)[C@H](Cc2ccc(O)cc2)NC1=O
With B9, the Kd in assay [6] worked out at 340 nM. This molecule also returned an IC50 in assay [7] of 3400 nM.

B10: Peptide No. 115 (peptide)
peptide: QRF[Pen]TGHFGGFYPCNGP-NH2
modifications: disulfide 4-14; N-terminus assumed
SMILES: C[C@@H](O)[C@@H]1NC(=O)[C@@H](NC(=O)[C@H](Cc2ccccc2)NC(=O)[C@H](CCCNC(=N)N)NC(=O)[C@@H](N)CCC(N)=O)C(C)(C)SSC[C@@H](C(=O)N[C@@H](CC(N)=O)C(=O)NCC(=O)N2CCC[C@H]2C(N)=O)NC(=O)[C@@H]2CCCN2C(=O)[C@H](Cc2ccc(O)cc2)NC(=O)[C@H](Cc2ccccc2)NC(=O)CNC(=O)CNC(=O)[C@H](Cc2ccccc2)NC(=O)[C@H](Cc2c[nH]cn2)NC(=O)CNC1=O
Consider B10, for which, in assay [6], the Kd turned out to be 400 nM. Besides, the IC50 in assay [7] was determined as 4100 nM.

B11: Peptide No. 238 (peptide)
peptide: QRF[Pen]TGHFG[Sar]WYPCNGP-NH2
modifications: disulfide 4-14; N-terminus assumed
SMILES: C[C@@H](O)[C@@H]1NC(=O)[C@@H](NC(=O)[C@H](Cc2ccccc2)NC(=O)[C@H](CCCNC(=N)N)NC(=O)[C@@H](N)CCC(N)=O)C(C)(C)SSC[C@@H](C(=O)N[C@@H](CC(N)=O)C(=O)NCC(=O)N2CCC[C@H]2C(N)=O)NC(=O)[C@@H]2CCCN2C(=O)[C@H](Cc2ccc(O)cc2)NC(=O)[C@H](Cc2c[nH]c3ccccc23)NC(=O)CN(C)C(=O)CNC(=O)[C@H](Cc2ccccc2)NC(=O)[C@H](Cc2c[nH]cn2)NC(=O)CNC1=O
In [7], B11 returned an IC50 of 1000 nM.

In assay [8], QRFCTGHFGGLXPCNGP (Pen 4; 2-pyridylAla 12 (printed 2-pvridylAla); disulfide 4-14; C-terminal amide) [Peptide No. 66] came in with an IC50 of over 125000 nM.

B12: Peptide No. 112 (peptide)
peptide: QRF[Pen]TGHFG[Sar]LYPCNGP-NH2
modifications: disulfide 4-14; N-terminus assumed
SMILES: CC(C)C[C@@H]1NC(=O)CN(C)C(=O)CNC(=O)[C@H](Cc2ccccc2)NC(=O)[C@H](Cc2c[nH]cn2)NC(=O)CNC(=O)[C@H]([C@@H](C)O)NC(=O)[C@@H](NC(=O)[C@H](Cc2ccccc2)NC(=O)[C@H](CCCNC(=N)N)NC(=O)[C@@H](N)CCC(N)=O)C(C)(C)SSC[C@@H](C(=O)N[C@@H](CC(N)=O)C(=O)NCC(=O)N2CCC[C@H]2C(N)=O)NC(=O)[C@@H]2CCCN2C(=O)[C@H](Cc2ccc(O)cc2)NC1=O
Take B12: in [9], the 50% inhibitory concentration (IC50) turned out to be 900 nM.

B13: Peptide No. 280 (peptide)
peptide: RFCTGHFGGLYPC
modifications: Pen 3; Sar 9; NMeLeu 10; disulfide 3-13 within each chain; C-termini joined through the two amino groups of a branching Lys
notes: C-terminally linked dimer; drawing CHEM-US-00124
For B13, the IC50 in assay [3] was 25 nM.

B14: Peptide No. 287 (peptide)
peptide: RF[Pen]TGHFG[Sar][NMeL]YPCG
modifications: disulfide 3-13; also: dimer: C-termini joined through a branching Lys
notes: C-terminally linked dimer; drawing CHEM-US-00131
Regarding B14, the concentration for half-maximal inhibition (IC50) in [3] is 20 nM.
